For data set [1], the target named is T1, Cdc13 (Saccharomyces cerevisiae, UniProt P32797 1-924).
T1 sequence: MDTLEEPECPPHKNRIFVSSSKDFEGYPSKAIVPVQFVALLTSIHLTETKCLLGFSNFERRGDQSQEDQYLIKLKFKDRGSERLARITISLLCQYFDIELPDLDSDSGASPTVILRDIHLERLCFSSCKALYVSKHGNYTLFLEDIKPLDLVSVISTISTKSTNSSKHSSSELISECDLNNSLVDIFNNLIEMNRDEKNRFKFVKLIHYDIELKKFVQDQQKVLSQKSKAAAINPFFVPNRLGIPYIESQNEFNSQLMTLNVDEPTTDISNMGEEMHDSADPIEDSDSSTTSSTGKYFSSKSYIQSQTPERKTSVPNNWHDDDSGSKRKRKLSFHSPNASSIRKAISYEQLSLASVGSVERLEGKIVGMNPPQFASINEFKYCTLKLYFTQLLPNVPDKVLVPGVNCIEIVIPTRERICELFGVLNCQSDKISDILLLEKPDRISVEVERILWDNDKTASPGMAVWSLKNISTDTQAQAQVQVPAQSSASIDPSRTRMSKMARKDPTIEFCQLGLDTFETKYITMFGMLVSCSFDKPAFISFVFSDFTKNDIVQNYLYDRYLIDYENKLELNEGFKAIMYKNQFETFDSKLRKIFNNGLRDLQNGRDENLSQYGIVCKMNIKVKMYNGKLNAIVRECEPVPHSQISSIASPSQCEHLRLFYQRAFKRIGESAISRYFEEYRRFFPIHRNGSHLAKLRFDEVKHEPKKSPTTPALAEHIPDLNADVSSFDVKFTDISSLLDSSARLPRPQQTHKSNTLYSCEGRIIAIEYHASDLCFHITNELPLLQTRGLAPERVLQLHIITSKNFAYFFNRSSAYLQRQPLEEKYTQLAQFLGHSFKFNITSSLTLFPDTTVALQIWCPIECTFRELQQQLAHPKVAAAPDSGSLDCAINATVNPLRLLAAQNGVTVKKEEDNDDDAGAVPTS
Kind of data set: EMSA.

For data set [2], the target named is T2, Cdc13-K504E (Saccharomyces cerevisiae, UniProt P32797 1-924, K504E).
T2 sequence: T1 sequence with K504E
Description: EMSA.

For data set [3], the target named is Ku (Ku70-Ku80);Cdc13 (Saccharomyces cerevisiae;Saccharomyces …, UniProt P32807;Q04437;P32797 1-602;1-629;1-924, |). Kind of data set: EMSA.
Chain of Ku (Ku70-Ku80);Cdc13 (P32807 whole entry, chain 1 of 2): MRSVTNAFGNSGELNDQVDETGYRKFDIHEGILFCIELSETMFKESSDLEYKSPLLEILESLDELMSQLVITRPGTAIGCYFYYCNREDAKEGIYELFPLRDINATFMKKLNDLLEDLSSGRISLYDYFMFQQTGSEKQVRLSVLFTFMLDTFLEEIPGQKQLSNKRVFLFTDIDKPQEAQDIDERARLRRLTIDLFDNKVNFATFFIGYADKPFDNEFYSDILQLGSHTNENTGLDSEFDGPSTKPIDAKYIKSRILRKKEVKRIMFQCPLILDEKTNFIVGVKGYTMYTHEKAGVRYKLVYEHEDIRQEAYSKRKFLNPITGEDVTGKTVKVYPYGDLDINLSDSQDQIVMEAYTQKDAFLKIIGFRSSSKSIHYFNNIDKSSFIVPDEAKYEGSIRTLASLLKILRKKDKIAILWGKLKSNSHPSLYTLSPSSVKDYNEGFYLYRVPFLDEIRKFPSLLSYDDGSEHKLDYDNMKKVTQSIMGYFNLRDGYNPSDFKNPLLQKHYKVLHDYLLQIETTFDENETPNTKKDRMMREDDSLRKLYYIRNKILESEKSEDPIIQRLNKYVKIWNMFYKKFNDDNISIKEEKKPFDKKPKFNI
Chain of Ku (Ku70-Ku80);Cdc13 (Q04437 whole entry, chain 2 of 2): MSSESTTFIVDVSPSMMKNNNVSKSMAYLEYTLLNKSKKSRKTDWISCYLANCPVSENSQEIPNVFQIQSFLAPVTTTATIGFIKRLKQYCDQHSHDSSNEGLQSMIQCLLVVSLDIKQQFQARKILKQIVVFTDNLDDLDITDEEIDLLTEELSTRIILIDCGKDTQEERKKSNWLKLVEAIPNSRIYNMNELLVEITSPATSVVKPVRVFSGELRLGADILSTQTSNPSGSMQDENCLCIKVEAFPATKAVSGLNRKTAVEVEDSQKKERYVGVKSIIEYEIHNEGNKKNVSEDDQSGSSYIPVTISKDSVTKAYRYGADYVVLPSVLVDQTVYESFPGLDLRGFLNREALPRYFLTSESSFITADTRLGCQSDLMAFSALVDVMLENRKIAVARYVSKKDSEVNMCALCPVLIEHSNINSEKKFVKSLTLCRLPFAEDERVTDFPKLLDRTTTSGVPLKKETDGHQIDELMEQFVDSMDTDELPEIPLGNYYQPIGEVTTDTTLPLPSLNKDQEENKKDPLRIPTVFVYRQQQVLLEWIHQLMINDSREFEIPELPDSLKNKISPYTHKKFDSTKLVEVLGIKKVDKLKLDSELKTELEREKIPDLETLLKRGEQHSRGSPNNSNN
For data set [4], the target named is RPA (UniProt P22336;P26754;P26755 1-621;1-273;1-122). Kind of data set: EMSA.
Chain of RPA (P22336 whole entry, chain 1 of 3): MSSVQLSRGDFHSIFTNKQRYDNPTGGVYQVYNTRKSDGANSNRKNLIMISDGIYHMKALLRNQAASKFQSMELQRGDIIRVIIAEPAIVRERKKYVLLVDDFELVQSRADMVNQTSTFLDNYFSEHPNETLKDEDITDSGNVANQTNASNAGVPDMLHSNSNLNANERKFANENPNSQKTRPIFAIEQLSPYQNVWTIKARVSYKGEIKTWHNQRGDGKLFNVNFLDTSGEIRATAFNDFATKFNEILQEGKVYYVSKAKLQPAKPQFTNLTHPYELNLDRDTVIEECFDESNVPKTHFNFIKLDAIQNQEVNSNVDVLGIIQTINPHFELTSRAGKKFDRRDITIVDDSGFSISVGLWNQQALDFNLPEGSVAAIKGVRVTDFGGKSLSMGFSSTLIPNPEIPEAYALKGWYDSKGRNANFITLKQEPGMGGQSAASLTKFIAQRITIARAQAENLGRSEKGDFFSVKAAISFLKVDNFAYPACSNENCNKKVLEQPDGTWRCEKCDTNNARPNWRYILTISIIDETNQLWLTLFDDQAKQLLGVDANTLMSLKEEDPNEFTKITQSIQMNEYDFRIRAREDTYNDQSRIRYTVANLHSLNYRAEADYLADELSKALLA
Chain of RPA (P26754 whole entry, chain 2 of 3): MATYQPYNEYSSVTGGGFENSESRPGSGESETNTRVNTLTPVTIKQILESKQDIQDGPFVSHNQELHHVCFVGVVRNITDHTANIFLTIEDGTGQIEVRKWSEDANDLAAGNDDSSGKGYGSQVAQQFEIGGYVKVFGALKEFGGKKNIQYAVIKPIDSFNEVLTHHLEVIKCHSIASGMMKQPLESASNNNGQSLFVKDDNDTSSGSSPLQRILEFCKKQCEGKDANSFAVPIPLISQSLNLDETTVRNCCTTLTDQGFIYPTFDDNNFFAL
Chain of RPA (P26755 whole entry, chain 3 of 3): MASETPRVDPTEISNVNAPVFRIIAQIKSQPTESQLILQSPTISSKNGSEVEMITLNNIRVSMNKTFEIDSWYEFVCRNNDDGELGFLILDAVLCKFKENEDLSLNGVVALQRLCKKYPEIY
Data set [5] has as its target T1, Cdc13. Kind of data set: EMSA. This is another data set of the same source.
In data set [6] the target is T1, Cdc13. Description: DNase I footprinting.
In data set [7] the target is T3, Cdc13-OB234 (Saccharomyces cerevisiae, UniProt P32797 341-924).
T3 sequence: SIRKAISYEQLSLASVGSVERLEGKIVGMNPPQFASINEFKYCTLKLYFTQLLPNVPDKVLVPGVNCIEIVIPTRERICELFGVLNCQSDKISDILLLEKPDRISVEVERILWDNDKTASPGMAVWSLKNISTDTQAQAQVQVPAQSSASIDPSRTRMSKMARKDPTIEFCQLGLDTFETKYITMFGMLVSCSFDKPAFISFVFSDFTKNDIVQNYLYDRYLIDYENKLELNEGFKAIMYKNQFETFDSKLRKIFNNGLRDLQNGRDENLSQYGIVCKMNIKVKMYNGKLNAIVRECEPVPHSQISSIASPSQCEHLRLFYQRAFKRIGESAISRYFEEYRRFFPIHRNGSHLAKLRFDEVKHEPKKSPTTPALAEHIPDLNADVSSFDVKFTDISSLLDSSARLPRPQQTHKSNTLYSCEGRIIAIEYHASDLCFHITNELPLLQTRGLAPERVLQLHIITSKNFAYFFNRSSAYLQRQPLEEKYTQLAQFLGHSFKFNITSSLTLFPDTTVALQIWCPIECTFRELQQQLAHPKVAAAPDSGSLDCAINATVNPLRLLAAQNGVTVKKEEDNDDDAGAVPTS
Kind of data set: DNase I footprinting.

Data set [8] deals with the molecule itself. Kind of data set: SEC.

Numbering of substitutions follows the chain as printed.

B1: Tel7 (dsDNA)
DNA 1: ATAATGATAAGACGTAGAGTGGGTGTGTGTGTG
DNA 2: ACACCCACTCTACGTCTTATCATTAT
For the molecule B1, in data set [1], the dissociation constant Kd is around 20 nM.

B2: Tel22 (dsDNA)
DNA 1: ATAATGATAAGACGTAGAGTGGGTGTGTGTGTGGGGTGGTGTGTGTGG
DNA 2: ACACCCACTCTACGTCTTATCATTAT
Take B2: the Kd in data set [1] is below 2.5 nM. Besides, the binding result in data set [2] and in data set [3] was “binds” in each case.

B3: ds26 (dsDNA)
DNA 1: ATAATGATAAGACGTAGAGTGGGTGT
DNA 2: ACACCCACTCTACGTCTTATCATTAT
As for B3, the binding result in data set [4] was “no binding”. The molecule further came in with a Kd in data set [1] of around 300 nM.
As to GTGTGGT (ssDNA) [ssTel7], the binding result in data set [5] was “no binding”.
For TGTGGGTGTGGTGTGGGTGTGG (ssDNA) [ssTel22], in data set [2], the binding result is given as “binds”.

B4: L-Tel22 (dsDNA)
DNA 1: TTCAGACAACAGTAGACTACAAGGATGACGACAAGATTAAGCTTTCTTATGTGGGTGTGTGTGTGGGGTGGTGTGTGTGG
DNA 2: ACACCCACATAAGAAAGCTTAATCTTGTCGTCATCCTTGTAGTCTACTGTTGTCTGAA
Regarding B4, the binding result in data set [6] and in data set [7] was “binds” each time.

B5: Cdc13 (recombinant full-length, Cdc13-Flag) (natural protein, S. cerevisiae, UniProt P32797 1-924, looked up)
chain: T1 sequence
With B5, the “stoichiometry N” value in data set [8] was found to be 2.

B6: Tel14 (dsDNA)
DNA 1: ATAATGATAAGACGTAGAGTGGGTGTGTGTGTGGGGTGGT
DNA 2: ACACCCACTCTACGTCTTATCATTAT
In turn, B6 came in with a Kd in data set [1] of around 5 nM. Moreover, the binding result in data set [2] is “binds”.

(Values after article doi:10.1101/2025.09.02.671137 (bioRxiv, 2025).)
